The target in the experiment is T1, STEAP1 (UniProt Q9UHE8 1-339, limits assumed).
T1 construct: whole, on cells; also called Six-Transmembrane Epithelial Antigen of the Prostate 1
The experiment can be described thus: cell binding (MFI) on LOX-IMVI cells expressing STEAP1. An excerpt: STEAP1 x CD28 bsAbs were engineered in 2+1 formats (mAb-scFv or Fab₂-scFv-Fc) to investigate the effects of bivalent binding to STEAP1 antigen compared with monovalent binding of a STEAP1 x CD28 bsAb in the 1+1 Fab-scFv format. LOX-IMVI cells (which express both STEAP1 at—8000 antigens/cell as well as an aCD3-scFv in order to provide Signal 1) were mixed with purified T cells at a 1:1 E:T ratio. As depicted in FIG. 36, XENP47235 in the […] format reaches a higher level of binding as measured by the MFI, indicating a higher antigen binding capacity and potentially higher efficacy. […] Each format may be advantageous in different contexts.

B1: XENP47241 (bispecific antibody)
heavy 1: QVQVQESGPGLVKPSQTLSLTCTVSGYSITSDYSWNWIRQPPGKKLEWIGYIGTSGSTVYNPSLKSRVTISRDTSKNQFSLKLSSVTAADTAVYYCARERNYDYELYYYAMDYWGQGTLVTVSSASTKGPSVFPLAPSSKSTSGGTAALGCLVKDYFPEPVTVSWNSGALTSGVHTFPAVLQSSGLYSLSSVVTVPSSSLGTQTYICNVNHKPSDTKVDKKVEPKSCDKTHTCPPCPAPPVAGPSVFLFPPKPKDTLMISRTPEVTCVVVDVKHEDPEVKFNWYVDGVEVHNAKTKPREEEYNSTYRVVSVLTVLHQDWLNGKEYKCKVSNKALPAPIEKTISKAKGQPREPQVYTLPPSREEMTKNQVSLTCDVSGFYPSDIAVEWESDGQPENNYKTTPPVLDSDGSFFLYSKLTVDKSRWEQGDVFSCSVLHEALHSHYTQKSLSLSPGK
heavy 2: not shown
light 1: not shown
light 2: not shown
notes: also called STEAP1 x CD28 bsAb in the 2+1 mAb-scFv format
Consider B1, for which the binding result is on record as “binds”.

The values are drawn from US20250043001A1 (Xencor, published 2025).
